Data as given in patent publication US12415833B2, “Method for activating helper T cell” (International Institute of Cancer Immunology, Inc., priority 2010, dated 2025).
No end group written: not given here.

Experiments:
Experiment in all cases: Folding test of HLA class II monomer protein with peptide using HPLC
Format in all cases: binding
Settings in all cases: 50-fold molar peptide, 37° C. overnight, compared with control (solvent only), folding criterion not less than 0.1 minute
[1] = target: HLA class II monomer protein DRB1*0901 (Homo sapiens, UniProt P01903+P01911, A100R/A103E/D57H/D86V/F55Y/F60I/F76Y/I96F/K127E/L162R/M171V/P40D/Q125H/Q99R/R33Q/R42F/S133A/S66N/T210M/V115G/W38K/Y107V/Y59G/Y89S)
Description: (§1) Next, in order to evaluate a binding ability of WT1-332 with MHC class II molecules, a folding test of 7 types of HLA class II monomer proteins (DRB1*1501, 0101, 0405, 0803, 0901, 1502, or DRB4*0101) with WT1-332 was carried out using HPLC. Briefly, a folding reaction solution was prepared by mixing an HLA class II monomer protein, a peptide [a peptide binding to each protein (positive control), a peptide not binding to each protein (negative control), and WT1-332], and a folding buffer. After reacting the solution at 37° C., the retention time was analyzed using HPLC. The folding with WT1-332 was evaluated by utilizing a shift of the retention time due to the binding of an HLA class II monomer protein with a peptide.
(§2) HLA class II monomer proteins which had been freeze-preserved at −80° C. were thawed on ice. The HLA class II monomer proteins thawed were adjusted using a dilution buffer so that they were contained in an amount of 0.05 mg (1×10−^9 mol) in 83 μL.
(§3) About 1 mg of each peptide was weighed by an electronic balance, transferred to a glass vial, and dissolved in DMSO to give a concentration of 20 mg/mL.
(§4) The amount of a peptide which is a 50-fold molar amount relative to an HLA class II monomer protein was calculated using the following calculation formula. Amount of peptide required: 1×10^−9 mol×50=5×10^−8 mol (amount of peptide required) […]×(Molecular weight of peptide)×1,000=(amount of peptide required)(mg) (Amount of peptide required)/[purity of peptide/100]=(amount of peptide added)(mg) [(Amount of peptide added)/20 mg/mL]×1,000=(amount of peptide solution added)(μL) Calculation of Amount of Folding Buffer Added
(§5) As a folding buffer, a 10% amount of a mixed solution of an HLA class II monomer protein and a peptide was added. The amount of the folding buffer added was calculated using the following calculation equation. [83 μL (Amount of HLA class II monomer protein)+(amount of peptide solution in 50-fold molar amount)]×0.1=amount of folding buffer added Analysis of Folding Using HPLC
(§6) To a glass vial charged with an HLA class II monomer protein, a peptide solution and a folding buffer were added in a calculated amount, and the mixture was allowed to stand at 37° C. overnight. HPLC (Waters 2695 Separation Module) was started, and a Seperdex 200 column was equilibrated with an equilibrating buffer. To all samples, 300 μL of the equilibrate buffer was added and well mixed, and a 100 μL portion of the mixture was used as a sample injection volume to calculate the retention time. Analysis time was 50 minutes. The criterion for the folding of an HLA class II monomer protein with a peptide is a shift of the retention time of not less than 0.1 minute as compared with a control (solvent only).

[2] = target: HLA class II monomer protein DRB1*0803 (Homo sapiens, UniProt P01903+P01911, A100R/A103L/A169T/D86S/F76Y/H45Y/K41T/L162R/M171V/P40S/Q125H/Q178H/Q39Y/Q99D/R218S/R42G/S66Y/V115G/W38E)
Description: as §1, §2, §3, §4, §5, §6

[3] = target: HLA class II monomer protein DRB1*1502 (Homo sapiens, UniProt P01903+P01911, V115G)
Description: as §1, §2, §3, §4, §5, §6

[4] = target: HLA class II monomer protein DRB1*0101 (Homo sapiens, UniProt P01903+P01911, A100R/D57E/F55L/F60I/F76Y/I96L/L162R/M171V/P40L/Q125E/R42F/V115G/Y59C)
Description: as §1, §2, §3, §4, §5, §6

[5] = target: HLA class II monomer protein DRB1*1501 (Homo sapiens, UniProt P01903+P01911)
Description: as §1, §2, §3, §4, §5, §6

[6] = target: HLA class II monomer protein DRB1*0405 (Homo sapiens, UniProt P01903+P01911, A100R/A169T/D86S/F76Y/I96L/K127E/L162R/M171V/N62H/P40V/Q125Y/R42H/S133A/S149N/S66Y/V115G/V209L/W38E)
Description: as §1, §2, §3, §4, §5, §6

[7] = target: HLA class II monomer protein DRB4*0101 (Homo sapiens, UniProt P01903+P13762, G164S)
Description: as §1, §2, §3, §4, §5, §6

HLA class II monomer protein DRB1*1502, sequence (P01903 26-254, other chains not shown): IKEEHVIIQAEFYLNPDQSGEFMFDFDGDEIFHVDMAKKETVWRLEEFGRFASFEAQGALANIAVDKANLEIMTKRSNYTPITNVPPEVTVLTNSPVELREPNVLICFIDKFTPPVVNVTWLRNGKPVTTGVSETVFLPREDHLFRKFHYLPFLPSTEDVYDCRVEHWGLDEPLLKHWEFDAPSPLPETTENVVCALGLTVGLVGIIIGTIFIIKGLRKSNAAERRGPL

degree of shift of the retention time [1]: not less than 0.1 minute | degree of shift of the retention time [2]: not less than 0.1 minute | degree of shift of the retention time [3]: not less than 0.1 minute | degree of shift of the retention time [4]: not less than 0.1 minute | degree of shift of the retention time [5]: not less than 0.1 minute | degree of shift of the retention time [6]: not less than 0.1 minute | degree of shift of the retention time [7]: not less than 0.1 minute
Sequence: KRYFKLSHLQMHSRKH [WT1-332]
